Bridges are numbered along the chain shown (N, C = ends). [ ]: non-standard residue; d: D form. R8 = C=CCCCCCC[C@@](C)(N)C(=O)O; S5 = C=CCCC[C@](C)(N)C(=O)O Bounds are passed on as bounds.

To fix the notation:
T1: C-terminally 6x Histidine-tagged Beta-Catenin (aa 134-668, 59 KD) (UniProt P35222 134-668)
T1 construct: range 134-668; Armadillo repeat region
T1 sequence: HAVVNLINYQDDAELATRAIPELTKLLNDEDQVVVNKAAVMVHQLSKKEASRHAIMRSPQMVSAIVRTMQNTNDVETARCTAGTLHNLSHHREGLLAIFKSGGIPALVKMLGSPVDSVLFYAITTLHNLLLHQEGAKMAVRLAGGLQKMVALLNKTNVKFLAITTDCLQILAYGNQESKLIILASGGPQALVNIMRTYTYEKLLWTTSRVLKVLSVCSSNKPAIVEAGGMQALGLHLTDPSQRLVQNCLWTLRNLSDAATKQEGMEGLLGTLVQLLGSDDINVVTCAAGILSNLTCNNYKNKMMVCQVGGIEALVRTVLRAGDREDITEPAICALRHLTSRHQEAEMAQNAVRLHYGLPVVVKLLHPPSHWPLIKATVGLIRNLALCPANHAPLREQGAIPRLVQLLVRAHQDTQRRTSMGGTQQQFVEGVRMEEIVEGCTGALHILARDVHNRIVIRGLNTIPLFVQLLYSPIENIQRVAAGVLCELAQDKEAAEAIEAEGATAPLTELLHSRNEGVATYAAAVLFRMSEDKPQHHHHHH

B1: SP1 (peptide)
peptide: Ac-NL[S5]NVK[S5]SLVNQS-NH2
modifications: staple 3-7
SMILES: CC(=O)N[C@@H](CC(N)=O)C(=O)N[C@@H](CC(C)C)C(=O)N[C@@]1(C)CCCC=CCCC[C@@](C)(C(=O)N[C@@H](CO)C(=O)N[C@@H](CC(C)C)C(=O)N[C@H](C(=O)N[C@@H](CC(N)=O)C(=O)N[C@@H](CCC(N)=O)C(=O)N[C@@H](CO)C(N)=O)C(C)C)NC(=O)[C@H](CCCCN)NC(=O)[C@H](C(C)C)NC(=O)[C@H](CC(N)=O)NC1=O
notes: also called Ac-NL$NVK$SLVNQS-NH2
B2: SP19 (peptide)
peptide: Ac-LGANDELISFKDEGE[S5]EEK[S5]SN-NH2
modifications: staple 16-20
SMILES: CC[C@H](C)[C@H](NC(=O)[C@H](CC(C)C)NC(=O)[C@H](CCC(=O)O)NC(=O)[C@H](CC(=O)O)NC(=O)[C@H](CC(N)=O)NC(=O)[C@H](C)NC(=O)CNC(=O)[C@H](CC(C)C)NC(C)=O)C(=O)N[C@@H](CO)C(=O)N[C@@H](Cc1ccccc1)C(=O)N[C@@H](CCCCN)C(=O)N[C@@H](CC(=O)O)C(=O)N[C@@H](CCC(=O)O)C(=O)NCC(=O)N[C@@H](CCC(=O)O)C(=O)N[C@@]1(C)CCCC=CCCC[C@@](C)(C(=O)N[C@@H](CO)C(=O)N[C@@H](CC(N)=O)C(N)=O)NC(=O)[C@H](CCCCN)NC(=O)[C@H](CCC(=O)O)NC(=O)[C@H](CCC(=O)O)NC1=O
B3: SP53 (peptide)
peptide: Ac-LGANDQLISF[S5]DEG[S5]QEEKSSN-NH2
modifications: staple 11-15
SMILES: CC[C@H](C)[C@H](NC(=O)[C@H](CC(C)C)NC(=O)[C@H](CCC(N)=O)NC(=O)[C@H](CC(=O)O)NC(=O)[C@H](CC(N)=O)NC(=O)[C@H](C)NC(=O)CNC(=O)[C@H](CC(C)C)NC(C)=O)C(=O)N[C@@H](CO)C(=O)N[C@@H](Cc1ccccc1)C(=O)N[C@@]1(C)CCCC=CCCC[C@@](C)(C(=O)N[C@@H](CCC(N)=O)C(=O)N[C@@H](CCC(=O)O)C(=O)N[C@@H](CCC(=O)O)C(=O)N[C@@H](CCCCN)C(=O)N[C@@H](CO)C(=O)N[C@@H](CO)C(=O)N[C@@H](CC(N)=O)C(N)=O)NC(=O)CNC(=O)[C@H](CCC(=O)O)NC(=O)[C@H](CC(=O)O)NC1=O
B4: SP21 (peptide)
peptide: Ac-LGANDELISFK[R8]EGEQEE[S5]SSN-NH2
modifications: staple 12-19
SMILES: CC[C@H](C)[C@H](NC(=O)[C@H](CC(C)C)NC(=O)[C@H](CCC(=O)O)NC(=O)[C@H](CC(=O)O)NC(=O)[C@H](CC(N)=O)NC(=O)[C@H](C)NC(=O)CNC(=O)[C@H](CC(C)C)NC(C)=O)C(=O)N[C@@H](CO)C(=O)N[C@@H](Cc1ccccc1)C(=O)N[C@@H](CCCCN)C(=O)N[C@]1(C)CCCCCCC=CCCC[C@@](C)(C(=O)N[C@@H](CO)C(=O)N[C@@H](CO)C(=O)N[C@@H](CC(N)=O)C(N)=O)NC(=O)[C@H](CCC(=O)O)NC(=O)[C@H](CCC(=O)O)NC(=O)[C@H](CCC(N)=O)NC(=O)[C@H](CCC(=O)O)NC(=O)CNC(=O)[C@H](CCC(=O)O)NC1=O
B5: SP41 (peptide)
peptide: Ac-LGANDELISF[S5]DEG[S5]QEQKSSN-NH2
modifications: staple 11-15
SMILES: CC[C@H](C)[C@H](NC(=O)[C@H](CC(C)C)NC(=O)[C@H](CCC(=O)O)NC(=O)[C@H](CC(=O)O)NC(=O)[C@H](CC(N)=O)NC(=O)[C@H](C)NC(=O)CNC(=O)[C@H](CC(C)C)NC(C)=O)C(=O)N[C@@H](CO)C(=O)N[C@@H](Cc1ccccc1)C(=O)N[C@@]1(C)CCCC=CCCC[C@@](C)(C(=O)N[C@@H](CCC(N)=O)C(=O)N[C@@H](CCC(=O)O)C(=O)N[C@@H](CCC(N)=O)C(=O)N[C@@H](CCCCN)C(=O)N[C@@H](CO)C(=O)N[C@@H](CO)C(=O)N[C@@H](CC(N)=O)C(N)=O)NC(=O)CNC(=O)[C@H](CCC(=O)O)NC(=O)[C@H](CC(=O)O)NC1=O
B6: SP40 (peptide)
peptide: Ac-LGANDELISF[S5]DEG[S5]QQEKSSN-NH2
modifications: staple 11-15
SMILES: CC[C@H](C)[C@H](NC(=O)[C@H](CC(C)C)NC(=O)[C@H](CCC(=O)O)NC(=O)[C@H](CC(=O)O)NC(=O)[C@H](CC(N)=O)NC(=O)[C@H](C)NC(=O)CNC(=O)[C@H](CC(C)C)NC(C)=O)C(=O)N[C@@H](CO)C(=O)N[C@@H](Cc1ccccc1)C(=O)N[C@@]1(C)CCCC=CCCC[C@@](C)(C(=O)N[C@@H](CCC(N)=O)C(=O)N[C@@H](CCC(N)=O)C(=O)N[C@@H](CCC(=O)O)C(=O)N[C@@H](CCCCN)C(=O)N[C@@H](CO)C(=O)N[C@@H](CO)C(=O)N[C@@H](CC(N)=O)C(N)=O)NC(=O)CNC(=O)[C@H](CCC(=O)O)NC(=O)[C@H](CC(=O)O)NC1=O
B7: SP45 (peptide)
peptide: Ac-LGANDELISF[S5]DQG[S5]QEQKSSN-NH2
modifications: staple 11-15
SMILES: CC[C@H](C)[C@H](NC(=O)[C@H](CC(C)C)NC(=O)[C@H](CCC(=O)O)NC(=O)[C@H](CC(=O)O)NC(=O)[C@H](CC(N)=O)NC(=O)[C@H](C)NC(=O)CNC(=O)[C@H](CC(C)C)NC(C)=O)C(=O)N[C@@H](CO)C(=O)N[C@@H](Cc1ccccc1)C(=O)N[C@@]1(C)CCCC=CCCC[C@@](C)(C(=O)N[C@@H](CCC(N)=O)C(=O)N[C@@H](CCC(=O)O)C(=O)N[C@@H](CCC(N)=O)C(=O)N[C@@H](CCCCN)C(=O)N[C@@H](CO)C(=O)N[C@@H](CO)C(=O)N[C@@H](CC(N)=O)C(N)=O)NC(=O)CNC(=O)[C@H](CCC(N)=O)NC(=O)[C@H](CC(=O)O)NC1=O
B8: SP44 (peptide)
peptide: Ac-LGANDELISF[S5]DQG[S5]QQEKSSN-NH2
modifications: staple 11-15
SMILES: CC[C@H](C)[C@H](NC(=O)[C@H](CC(C)C)NC(=O)[C@H](CCC(=O)O)NC(=O)[C@H](CC(=O)O)NC(=O)[C@H](CC(N)=O)NC(=O)[C@H](C)NC(=O)CNC(=O)[C@H](CC(C)C)NC(C)=O)C(=O)N[C@@H](CO)C(=O)N[C@@H](Cc1ccccc1)C(=O)N[C@@]1(C)CCCC=CCCC[C@@](C)(C(=O)N[C@@H](CCC(N)=O)C(=O)N[C@@H](CCC(N)=O)C(=O)N[C@@H](CCC(=O)O)C(=O)N[C@@H](CCCCN)C(=O)N[C@@H](CO)C(=O)N[C@@H](CO)C(=O)N[C@@H](CC(N)=O)C(N)=O)NC(=O)CNC(=O)[C@H](CCC(N)=O)NC(=O)[C@H](CC(=O)O)NC1=O
B9: SP39 (peptide)
peptide: Ac-LGANDELISF[S5]DQG[S5]QEEKSSN-NH2
modifications: staple 11-15
SMILES: CC[C@H](C)[C@H](NC(=O)[C@H](CC(C)C)NC(=O)[C@H](CCC(=O)O)NC(=O)[C@H](CC(=O)O)NC(=O)[C@H](CC(N)=O)NC(=O)[C@H](C)NC(=O)CNC(=O)[C@H](CC(C)C)NC(C)=O)C(=O)N[C@@H](CO)C(=O)N[C@@H](Cc1ccccc1)C(=O)N[C@@]1(C)CCCC=CCCC[C@@](C)(C(=O)N[C@@H](CCC(N)=O)C(=O)N[C@@H](CCC(=O)O)C(=O)N[C@@H](CCC(=O)O)C(=O)N[C@@H](CCCCN)C(=O)N[C@@H](CO)C(=O)N[C@@H](CO)C(=O)N[C@@H](CC(N)=O)C(N)=O)NC(=O)CNC(=O)[C@H](CCC(N)=O)NC(=O)[C@H](CC(=O)O)NC1=O
B10: SP20 (peptide)
peptide: Ac-LGANDELISF[R8]DEGEQE[S5]KSSN-NH2
modifications: staple 11-18
SMILES: CC[C@H](C)[C@H](NC(=O)[C@H](CC(C)C)NC(=O)[C@H](CCC(=O)O)NC(=O)[C@H](CC(=O)O)NC(=O)[C@H](CC(N)=O)NC(=O)[C@H](C)NC(=O)CNC(=O)[C@H](CC(C)C)NC(C)=O)C(=O)N[C@@H](CO)C(=O)N[C@@H](Cc1ccccc1)C(=O)N[C@]1(C)CCCCCCC=CCCC[C@@](C)(C(=O)N[C@@H](CCCCN)C(=O)N[C@@H](CO)C(=O)N[C@@H](CO)C(=O)N[C@@H](CC(N)=O)C(N)=O)NC(=O)[C@H](CCC(=O)O)NC(=O)[C@H](CCC(N)=O)NC(=O)[C@H](CCC(=O)O)NC(=O)CNC(=O)[C@H](CCC(=O)O)NC(=O)[C@H](CC(=O)O)NC1=O
B11: SP46 (peptide)
peptide: Ac-LGANDELISF[S5]DEG[S5]QQQKSSN-NH2
modifications: staple 11-15
SMILES: CC[C@H](C)[C@H](NC(=O)[C@H](CC(C)C)NC(=O)[C@H](CCC(=O)O)NC(=O)[C@H](CC(=O)O)NC(=O)[C@H](CC(N)=O)NC(=O)[C@H](C)NC(=O)CNC(=O)[C@H](CC(C)C)NC(C)=O)C(=O)N[C@@H](CO)C(=O)N[C@@H](Cc1ccccc1)C(=O)N[C@@]1(C)CCCC=CCCC[C@@](C)(C(=O)N[C@@H](CCC(N)=O)C(=O)N[C@@H](CCC(N)=O)C(=O)N[C@@H](CCC(N)=O)C(=O)N[C@@H](CCCCN)C(=O)N[C@@H](CO)C(=O)N[C@@H](CO)C(=O)N[C@@H](CC(N)=O)C(N)=O)NC(=O)CNC(=O)[C@H](CCC(=O)O)NC(=O)[C@H](CC(=O)O)NC1=O

The experiment deals with T1, C-terminally 6x Histidine-tagged …. Briefly: competitive fluorescence polarization, FAM-labelled linear probe as competitor, His-tagged beta-catenin 134-668. The method in brief: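 FP competition in 25 mM Tris-HCl pH 7.5, 200 mM NaCl, 5 mM CHAPS, 2 mM DTT at room temperature. Competitor peptides at 40–0.7 μM 2× working range, constant DMSO. Probe (benchmark peptide with N-terminal FAM via β-Ala spacer) from 25 nM 10× stock. Read after 3 h in the dark, ex 485/em 528 nm.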
(In fluorescence polarisation assays a small probe gives low polarisation when free and higher when bound to something large.)
As to B1, the IC50 (usually the point on the concentration scale where inhibition reaches its midpoint) is at least 100 µM.
For the molecule B2, the IC50 is at least 100 µM.
Consider B3, for which the IC50 was 24.4 µM.
Turning to B4, the IC50 worked out at 23.9 µM.
The result for B5 reads 19.5 µM; that for B6, 6.63 µM.
The result for B7 reads 10.9 µM.
Then B8, with 3.75 µM; and B9, with 3.08 µM; and B10, with at least 100 µM.
Consider B11, for which the IC50 worked out at 23.7 µM.

Values taken from patent US20170266254A1 (AILERON THERAPEUTICS, published 2017).
